Test results reported in paper PMC7141136, “Ohr and OhrR Are Critical for Organic Peroxide Resistance and Symbiosis in Azorhizobium caulinodans ORS571”.

How the values were obtained:
[1] = target: OhrR (AZC_3555) of Azorhizobium caulinodans ORS571, 6×His-tagged recombinant protein (Azorhizobium caulinodans ORS571); assay: non-reducing SDS-PAGE; purified OhrR oxidised with 0.1 mM CuOOH for 10 min, then non-reducing SDS-PAGE; covalent dimer
[2] = target: OhrR^C121S (Azorhizobium caulinodans ORS571); assay: as above
OhrR = target: T1, OhrR (Azorhizobium caulinodans ORS571, UniProt A8IEZ4 1-144); assay: EMSA; reduced (2.5 mM DTT in buffer); dose-dependent; 50 mM Tris-HCl pH 8.3, 0.25 M KCl, 2.5 mM DTT, 5 mM MgCl2, 0.05 ug/mL poly(dI-dC), 2.5 mM EDTA, 1% glycerol; 20 nM DNA, 20 uL, 20 min, room temperature; 6% native PAGE in 0.5x TBE; conditions: protein: recombinant; tags: N-terminal 6xHis (pET-28a); chain copies: 2; label: none (GelRed stain)
T1 sequence: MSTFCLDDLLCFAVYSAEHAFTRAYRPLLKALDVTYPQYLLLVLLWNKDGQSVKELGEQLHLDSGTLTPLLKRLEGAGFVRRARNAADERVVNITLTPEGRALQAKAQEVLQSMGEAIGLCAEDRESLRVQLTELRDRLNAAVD

Molecule: OhrR (AZC_3555) of Azorhizobium caulinodans ORS571, 6×His-tagged recombinant protein (natural protein)
- stoichiometry N [1]: 2

Molecule: OhrR^C121S (natural protein)
- stoichiometry N [2]: 2

B1: ohr promoter probe (181 bp) (dsDNA)
DNA 1: CAAAGGGTTAGTTTTCCGTTGCGGAAGGTTGGGTGATGTTGACGGTGGTCTGCAAAATAAGTTTGACACAATCAAATTGTGTGCTACTTAAATGGCCATGGAAGCGGCTTGGCCGTTTCTCATCGATTTCTCAAGGCACGAGGATCAAGCGATGTCCGTCGATGTGAAGTACACCACCAAG
DNA 2: CTTGGTGGTGTACTTCACATCGACGGACATCGCTTGATCCTCGTGCCTTGAGAAATCGATGAGAAACGGCCAAGCCGCTTCCATGGCCATTTAAGTAGCACACAATTTGATTGTGTCAAACTTATTTTGCAGACCACCGTCAACATCACCCAACCTTCCGCAACGGAAAACTAACCCTTTG
- binding result (OhrR): binds
